Experiment: yeast display, Sf9 membrane polyspecificity reagent, FACS + sequencing; frameworks hold sequencing errors
Procedure, shortened: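 A nanobody's polyreactivity label depends on the gate it was sorted from. Yeast display cells were stained with 10% biotinylated, detergent-solubilized Sf9 membrane reagent for 1 hour at 4 °C, enriched on streptavidin microbeads and sorted by FACS. The low and high (top ~1%) gates were set on anti-HA fluorescence for expression and streptavidin fluorescence for reagent binding.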
In the case of “QVQLVESGGGLVQAGASLRLSCADSGIIFQVYAMGWYRQAPGKERELVAAISDDGSTNYADSVKGRFTISRDNAKNTVYLQMNSLKPEDTAVYYCAKESWGRLYYRYDYWGQGTQVTVSS”, the “polyreactivity (PSR sort gate)” value is reported as “low polyreactivity”.
For “QVQLVESGGGLVQAGASLRLSCSASGRTFLNYTMGWSRHAPGTERELVAAIRYRDGSTYYADSVKGRFTISRDNAKNTVYLQMNSLKPVDTAVYYCNTRITQVGDYIYDYWGQGTQVTVSS”, the “polyreactivity (PSR sort gate)” value was “low polyreactivity”.
In the case of “QVQLVESGGGLVQAGCILRLSCAASGFTFSWYAMGWYRQARGKERELVAAISYSGDSTYYADSVKGRFTISRDNAKNTVYLQMNSLKPEDTAVYYCARRSYYATYYPQPFGYNYLGQGTQVTVSS”, the “polyreactivity (PSR sort gate)” value is reported as “high polyreactivity”.
In the case of “QVQLVESGGGLVQAGCSGSLSCAASGRIFQRNSMGWYRQAPGKEREFVAAITKSGGGTYADSVKGRFTISRDNAKNTVYLQMNSLKPEDTAVYYCNVVPVWRPYSLINWQKHFGYWGQGTQVTVSS”, the “polyreactivity (PSR sort gate)” value is reported as “high polyreactivity”.
In the case of “QVQLVESGGGLVQAGCSLRISCAASGFTFAHNEMGWSRQAPGKERELVAAISSRGGRTFYADSVKGRFTISRDNAKKTVYLQMNSLKPEDTAVDYCNRVRSVQYDYWGQGSQVTVSS”, the “polyreactivity (PSR sort gate)” value is reported as “high polyreactivity”.
With “QVQLVESGGGLVQAGCSLRLICAASGRIFSTYAMGWYRQAPGKERELVAAITSRGGSTYYADSVKGRFTISRDNAKNTVYLQMNSLKPEDTAVYYCATESPYKWGGYRFYYWGQGTQVTVSS” the “polyreactivity (PSR sort gate)” value was “high polyreactivity”.
For “QVQLVESGGGLVQAGCSLRLSCAASGFIFVGKDMGWYRQAPGKERELVAAISSGGTTNYADSVKGRFTISRDNAKNTVYLQMNSLKPEDTAVYYCAADFDYRQGYDSFHLDYWGQGTQVTVSS”, the “polyreactivity (PSR sort gate)” value was “low polyreactivity”.
For “QVQLVESGGGLVQAGCSLRLSCAASGFIFYDYDMGWYRQAPGKERELVAAITYSGGSTYYADSVKGRFTISRDNAKNTVYFQMNSLKPEDTAVYYCAAVKSRYAEAVDYYYWGQGTQVTVSS”, the “polyreactivity (PSR sort gate)” value was “low polyreactivity”.
In the case of “QVQLVESGGGLVQAGCSLRLSCAASGFTFFKYAMGWYRQAPGTERELVAAITRNGGRTYYADSVKGRFTISRDNAKNTVYLQMNSLKPEDTAVYYCAARYANLRNGYRYDYWGQGTQVTVSS”, the “polyreactivity (PSR sort gate)” value is reported as “high polyreactivity”.
In the case of “QVQLVESGGGLVQAGCSLRLSCAASGGTFGRYAMGWYRQAPGTERELVASITTGGRTNYADSVKGRFTISRDNAKNTVYLQMNSLKPEDTAVYYCAKKRYGYPVPFYYWGQGTQVTVSS”, the “polyreactivity (PSR sort gate)” value is reported as “high polyreactivity”.
In the case of “QVQLVESGGGLVQAGCSLRLSCAASGGTFYVNAMGCYRQAPGKDRELVAGIRESGASTYYADSVKGRFTISLDNAKNTVYLQMNSLKPEDTAVYYCAVDGPYPAASQSEVGYDYWGQGTQVTVSS”, the “polyreactivity (PSR sort gate)” value is reported as “low polyreactivity”.
With “QVQLVESGGGLVQAGCSLRLSCAASGRIFSRYTMGWSRQAPGKERELVAAISSGGSTYYADSVKGRFTISLDNAKNTVYFQMNSLKPEDTAVYYCNTRYVGQRSTWVDQVRRYDYCGQGTQVTVSS” the “polyreactivity (PSR sort gate)” value was “high polyreactivity”.
For “QVQLVESGGGLVQAGCSLRLSCAASGRIFYYNTMGWYRQAPGKERELVAAINFSGDRTYYADSVKGRFTISRDNAKNTVYLQMNSLKPEDTAVYYCAAQGYWYGYQPGNFWGQGTQVTVSS”, the “polyreactivity (PSR sort gate)” value was “high polyreactivity”.
For “QVQLVESGGGLVQAGCSLRLSCAASGRSIAYNAMGWYRQAPGTERELVAAISWSGGSTYYADSVKGRFTISRDNAKNTVYLQMNSLIPEDTAVYYCAKRFAQYRYPYDYWGQGKQVTVSS”, the “polyreactivity (PSR sort gate)” value was “high polyreactivity”.
In the case of “QVQLVESGGGLVQAGCSLRLSCAASGRTFGGYALGWYRQAPGKERELVAAISRGGNTYYADSVKGRFTISRDNAKNTVYLQMNSLKPEDTAVYYCNVARGNPVPPSEYWGQGTQVTVSS”, the “polyreactivity (PSR sort gate)” value is reported as “low polyreactivity”.
With “QVQLVESGGGLVQAGCSLRLSCAASGRTGFNAMGWYRQAPGKERELVASIRSGGTSTYYADSVKGRFTISRDNAKNTVYLQMNSLKPEDTAVYYCYDYWGHGTQVTVSS” the “polyreactivity (PSR sort gate)” value was “low polyreactivity”.
In the case of “QVQLVESGGGLVQAGCSLRLSCAASGSIFRAYAMGWYRHAPGKERELVAGISGSGGSTYYADSVKGRFTISRDNAKNTVYLQMNSLKPQDTAVYYCAKALSTYQRTGCYDYWGQGTQVTVSS”, the “polyreactivity (PSR sort gate)” value is reported as “high polyreactivity”.
For “QVQLVESGGGLVQAGCSLRLSCAASGSTFDNYAMGWYRQAPGKERELVAAISSSGTRTYYADSVKGRFTISRDNAKNTVYLQMNSLKPEDTAVYYCAAGGHYYSSPGYNYWGLGTQVTVSS”, the “polyreactivity (PSR sort gate)” value was “high polyreactivity”.
With “QVQLVESGGGLVQAGCSLRLSCAASGSTFFSNAMGWYRQAPGKFRELVAGITFSGGSTYYADSVKGRFTISRDYAKNTVFLQMNSLKPEDTAVYYCAASPPYKLVWWRRMDYWGQGTQVTVSS” the “polyreactivity (PSR sort gate)” value was “low polyreactivity”.
For “QVQLVESGGGLVQAGCSLRLSCAASGSTFRYYPMGWYRQAPGKEREFVAAITWRDGSTYYADSVKGRFTISRDNAKNTVYLQMNSLKPEDTAVYYCAARNSHVGYYDEYYYWGQGTQVTVSS”, the “polyreactivity (PSR sort gate)” value was “low polyreactivity”.
For “QVQLVESGGGLVQAGCSLRLSCAASGSTLDGNAMGWYRQPPGKERELVAAISVSGGTTYYADSVKGRFTISRDNAKNNVYLQMNSLKREDTAVYYCSTEWRPRYYGTEPFDSWGQGTQVTVSS”, the “polyreactivity (PSR sort gate)” value was “high polyreactivity”.
With “QVQLVESGGGLVQAGCSLRLSCAASGYIFYIYAMGWYRQAPGKERELVAAITWSGDTTYYADSVKGRFTISRDNAKNTVYLQMNSLKPEDTAVYNCATYYYYPSWYLLYGEYNYWGQGTQVTVSS” the “polyreactivity (PSR sort gate)” value was “low polyreactivity”.
In the case of “QVQLVESGGGLVQAGCSLRLSCAATGRSFRRNTMGWYRQAPGKERELVAAISSSGSSTYYADSVKGRFTISRDNAKNTVFLQMNSLKPEDTAVYYCAARGRGQPFVRYDYWGQGTQVTVSS”, the “polyreactivity (PSR sort gate)” value is reported as “high polyreactivity”.
In the case of “QVQLVESGGGLVQAGCSLRLSCADSGLTFTFYAMGWYRQAPGKVRELVAAISTSGASTYYADSVKGRFTISRDNANNTVYLQMNSLKPEDTAVYYCAAEYSYSSYLWYDYWGQGTQVTVSS”, the “polyreactivity (PSR sort gate)” value is reported as “high polyreactivity”.
With “QVQLVESGGGLVQAGCSLRLSCDASGFIFKVYAMGWYRQAPGKERELVASISFSGGRTYYADSVKGRFTISRDNAKNTFYLQMNSLKPEDSAVYYCNRSYVNKYYSWGQGTQVTVSS” the “polyreactivity (PSR sort gate)” value was “high polyreactivity”.
With “QVQLVESGGGLVQAGCSLRLSCDASGSIFPGNAMGWYRQAPGKEREFVAAISWSGGSTNYADSVKGRFTISRDNAKNTVYLQMNSLKPEDTAVYFCAKRFVRRDPTTQLYGKAYEYWGQGTQVTVSS” the “polyreactivity (PSR sort gate)” value was “high polyreactivity”.
With “QVQLVESGGGLVQAGCSLRLSCGASGSIFAYYDMGWYREAPGTEREVVAAITTRDDDTYYADSVKGRFTISRDTAKNPVYLQMNSLKPEDTAVYYCAAAWWDYGNGKYDYWGQGTQVTVSS” the “polyreactivity (PSR sort gate)” value was “low polyreactivity”.
In the case of “QVQLVESGGGLVQAGCSLRLSCSASGRIYYAMGWYRQADGKERELVATITRSGGRTYYADSVKGRFTISRDNAKITVYLQINSLKPEDTAVYYCAKQFGRPYVGSNSYCLTYDSWGEGTQVTVSS”, the “polyreactivity (PSR sort gate)” value is reported as “low polyreactivity”.
With “QVQLVESGGGLVQAGCSLRLSSAASGTIFGYYTMGRYRQAPGKEREIVAAISRSGGSTYYADSVKGRFTISRDNAHNTGYLQMNSLKPEHTAVYYCNADVYWEYDYWGQGTQVTVSS” the “polyreactivity (PSR sort gate)” value was “low polyreactivity”.
In the case of “QVQLVESGGGLVQAGCSLRLSWAASGFTFAYYAMGWSRQAPGKERDLVASITSSGGSTYYADSVKGRFTISRDNAKNTVYLQMNSLKPEDTAVYYCNKAYRGVYYGYEYWGQGTQVTVSS”, the “polyreactivity (PSR sort gate)” value is reported as “high polyreactivity”.
For “QVQLVESGGGLVQAGCSLRLTCAASGFTFYKYAMGWYRQAPGKERELVAAISRRGTSTYYADAVKGRFTISRDNAKNTVYLQMNSLKPEDTAVYYCNRDVSLSAFDYWGQGTQVTVSS”, the “polyreactivity (PSR sort gate)” value was “high polyreactivity”.
